The DeepSol protein solubility set

test: soluble on expression in E. coli; label from the status in PepcDB or PDB records

Soluble on expression in E. coli, not soluble:
MGSDKIHHHHHHMESIENSYGRLLLESQLPDSAKQLAQPLKSVVILRGKMICQRCHYQLDEEARLPSGAYYCRFCLVFGRNQSDKLLYAIPPMHFPKGNYLVWGGQLTAYQEMISQQLLINMQNQKTTLVHAVTGAGKTEMIYAAIEAVINTGGWVCIASPRVDVCVEVATRLSQAFSCSICLMHAESLPYQRAPIIVATTHQLLKFHKAFDLLIIDEVDAFPFVNNIQLHYAASQALKEGGAKILLTATSTRTLERKVNKGEVVKLTLARRFHNRPLVIPKFIRSFNLFKMIHRQKLPLKILKYLKKQRKTGYPLLIFLPTIIMAESVTAILKELLPAEQIACVSSQSQNRKEDITAFRQGKKTILITTSILERGVTFPQIDVFVLGSHHRVYSSQSLVQIAGRVGRSIDRPDGTLYFFHEGISKAMLLARKEIKEMNYKGYSHDLSTMSTN
MGSDKIHHHHHHMETRNLQRNPILLVHGITDTEAVFDQMAAYLRQMGWTVYTLNLVPNNGEAPLNVLAQQVADYVAANITPEQPFDLVGFSMGGIVSRYYVQRLGGISHVQRFVTISSPHYGTVIAYASQRPGCVQMRPNSLFLQDLNHDVQMLEELNFTSIWTPYDLMIVPTHSSKMPVGKELSIPVALHSWMLRDVRSIEAVAAALAEPINCDRRFEYIPNSSIHN
MGSDKIHHHHHHMEYGHHARPDSKRPLDEGSPAAAGLTSKKANEALTRNRELTTVLVKNLPKSYNQNKVYKYFKHCGPIIHVDVADSLKKNFRFARIEFARYDGALAAITKTHKVVGQNEIIVSHLTECTLWMTNFPPSYTQRNIRDLLQDINVVALSIRLPSLRFNTSRRFAYIDVTSKEDARYCVEKLNGLKIEGYTLVTKVSNPLEKSKRTDSATLEGREIMIRNLSTELLDENLLRESFEGFGSIEKINIPAGQKEHSFNNCCAFMVFENKDSAERALQMNRSLLGNREISVSLADKKPFLERNEVKRLLASRNSKELETLICLFPLSDKVSPSLICQFLQEEIHINEKDIRKILLVSDFNGAIIIFRDSKFAAKMLMILNGSQFQGKVIRSGTINDMKRYYNNQQNHSMKHVKPSCINMMEKGPNLQVKKKIPDKQEQMSNDDFRKMFLGE
MGSDKIHHHHHHMFALAASNMILRGDGKANLHQSSCFMTDFQDLIKNPKPETGLKRPNVGFLNPPYAQSKSDAELHELYFVKEMLDMLAEGGTGIAIIPVSCVIAPSKAKSEIVKYHRLKAVMSMPSELFYPVGTVTCIVVFEAHKPHFQTVVIDPDTQEEISTKKACRKTWFGYWRDDGFEKTKHLGRIDLYDRWQGIKARWLEHYLNNEVHTGESVTAFVTDNDEWVAEAYLETDYSKITRADFEQVVREFALFQLLGAEVGPTENLDNESYEDDDNNDFGDDE
MGSDKIHHHHHHMFDLHVHSVFSDGELIPSEIARRMYAAGNKGFAITDHADFTNIQDILAKLTRIKEHMESYEAKFLVGVEITHVPPSLIGKAVELAWKEGAEIVVVHGETVAEPVKEGTNLAALSEEITILAHPGIMSEEEAELARENGIYVEISARRGHCLGNGRVARLAEKYGFELVINTDMHSPSDIINDSTAERILKGAGVKEWKSVLENNEKLFRKLRK
MGSDKIHHHHHHMFDVAARSGSFKQASQELGVTQSAVTRQIQTLEEQLEVRLFQRDNRVHSLTPVGLELAPQIEQIFEQLERTIERTRNLSDNTTTQLTVAISSERLRFWLAAKLADFHSLYPHIQLSFSRCNEYFINESAAEMASAIQHQSWDLAIGYGKVTDKHIQSIVLQKNQMLPVSAIKTNNSPFQLPWLINPENPDHQAMLKTYSQQLKSTRIIHCNDVQMSLDLSSAEQAVALIDSSLITPGLSNLKVYNDSAQPCQYPLSIYYRKRQRQPVALVAFIKWLQMIIS
MGSDKIHHHHHHMFDWNDLRFFLELQRSGRLLTAAKRLNTTHSTVARHIESIEQSLGTALFVQHAQGYELTPSGQALLKHAEAMENVALLAQEEITQAITPLGKIRLGVTEGIGIMFFTPRMNALFERYPGLEVELVAVPRFVSILNREAEISIHLERPNADLLITRKLTDYRLALYASQAYLDRAPPLRHREDLARHSWIGYVDDLLFSQELLFLNSFCRVPNVVFRSTSVIAQQAAARAGLGIAVLPNYMARHDPTLVRVLPGETIQRSYWICTRRELHKSVRLRVVWDYLLALCAAEQSELLAE
MGSDKIHHHHHHMFEPFPGNYVWNLGINLALIAGGNHGELDEVCRPVREAAKAGADAGSALLFDSWIAVADQVTRNAERDEAEGFLLSAGAKYLRASGYYLGAERLQSRDYAPRWVAYDKGLELYHKGSALSGLHVDKVEIPYEGSSYPAIFVHDGSGTPRPTLVSVNGLDSMKEQVNMAGHGAVNLARGMNTLFLDQPGTGEAIRKRNLPAVFDAERWGSPAFDYLLTRSDVIHSQIGIFGLSFGGYHAPRIAANDPRYALCAVMGANHVWGQRQRERVANEGENPVPHYWDHVMWVFGIDDQAAFLEYADQITLDGQVEKIRVPFLITHGENDRQIPAYNAQMSYDQAVNSPKRTLRIFTRADFEVEHCGADNGTGMRDYIADWCAQTFAEMAGNKG
MGSDKIHHHHHHMFERDNREDEAAELVTLAAKLKALMKPDVARRVEPDLEALLEAEGLAMRPGPRPMIDTDLVQELRQAMITCSKVKLRYRNRRTRQANERIVHPYAFLHGHRNYLIAWHEHPKANKVALFALPHIEAVDATGEPFVRDPGFQLQDFAARSFGLFQDEPFQTAWKFAPDAADDAAEFLFHPSQAQERLPDGSLIVRFVAASELEMAWHLYAWGDKVEVLEPQKLAEMVNPGRVAWPALP
MGSDKIHHHHHHMFGFRLSGGKGILQRSQVALVVMESTGGLEIPAAKAIRRAGIAVIIANPRQTHQFAQLQPLTKTDAKDAKMPAFFAQMTAQKEDSQTMPYQPPTEAEEVLEALVNRRNQSADMRTAEKNRLHQVHETQVGSVKQLIAHFDRLIDELDKQIDDHTHTHFDGKAQVAEQIKGIGSITTATLMAMLPELGRLSHKRIASLAGIAPHPRESEETKFKSRCFGGRSAVRKALYMATVAATRFEPLIRDFYQRLLSKGKPYKVAVTACMRKLLTISNTRMRDYFAENDTAENGIRTA
MGSDKIHHHHHHMFKIVYPNAKDFFSFINSITNVTDSIILNFTEDGIFSRHLTEDKVLMAIMRIPKDVLSEYSIDSPTSVKLDVSSVKKILSKASSKKATIELTETDSGLKIIIRDEKSGAKSTIYIKAEKGQVEQLTEPKVNLAVNFTTDESVLNVIAADVTLVGEEMRISTEEDKIKIEAGEEGKRYVAFLMKDKPLKELSIDTSASSSYSAEMFKDAVKGLRGFSAPTMVSFGENLPMKIDVEAVSGGHMIFWIAPRL
MGSDKIHHHHHHMFLRFFSELRQAKVPVSLREYLLLMEALDKDVIDRSVEDFYFLSRASLVKDEKNLDKFDRVFSHVFKGLETVNDGLAADIPEEWLKALTEKFLTDEEKAQIEALGGFEKLMETLQERLREQKKRHEGGNKMIGSGGTSPFGNNGYNPEGVRIGQDKGRHGRAVKVWDKREYKNLDDSVELGTRNIKVALRRLRKFARTGAAEELDLNGTIKGTAEKGYLDIQLRPERRNAIKVLLFFDIGGSMDSHIKLCEELFSAARTEFKNLEFYYFHNCLYETVWKDNKRRQTEKIPTFDVLHKFPADYKVIFVGDATMSPYEITYPGGSVEHWNEEPGAIWMQRVTEIYQSCIWLNPTPERHWDYTQSIGVMRQIMADRMFPLTIEGLDKAMRELVRG
MGSDKIHHHHHHMFPDGEISDVVVIGGGPAGAICALALARAGVDVKLMYWGGYAPGGIELVSGRGRHFIEQYCPDFFSEVVHGIEIHETASLWDTAEPVIFNAMFNPWGAGVAIERSLLDGALRNLASGAGGTIIPDAKVVDVERQHDRWRLIARSSEDASSNETTSRAGEFAIYARFIVLATGRVPLPFFDHAPVAESSQIALMTSLQARIAPRHTLYVEGTRNGWWYALPAEKGYFASFCIGRNELKQRQSRLKDFFFQELQCTRLLAPLSAGAFDQRPIAGRMAGATMFPAMGGDAWIAVGDATAAPDPLSGTGIEWAIESAQLGADMLLEALHGSKGNVLFDLPRYENTIRRRIAAQEKTAAYHYHRLKEIRET
MGSDKIHHHHHHMFSSPLELFKALTQIPHSSGDTTLMQKFLIQSAQSFGALVSVDSAGNILCQKGDSPRFCLQAHYDMVCVGKAPEIELFEEGGWLRAKDSSLGADNGAALACFLILLKQESSIEILFTNDEEIGMLGAKALELTPSAPLILNVDSESLQEVVISCAGGYDLELEIPATFKETPAEGYLYELSTQNFLGGHSGIDIIKNHPNALVEMAHLLASLPVEILSFEGGEKSNSIPVHAKASLFSSRPLEHLPSWIRATARPLSSPLKALDQTPLLDLLRALHSGIFAYDEESSGVLDSLNISLLKAHEKGWTLTLMGRANDKERLWRNLERARLIARAFGIKEDRLKDFYPPWEKAKSSSYLEKIKEVYERELGVCHVRSIHAGLECAVLQEKLPKAEFISIGPTILHPHSTREALDIKSFERFWEILQIITKVL
MGSDKIHHHHHHMGEIVLAAKCTHVPTMLMSEQEGPVKGKRQAAIDGHLEIARRARALGADTVVICDTHWVINAGFHINANSRFQGLFTSNEFPQFIQNMPYDYEGNPGLGDAIAKEASARGAYTLAHHLDSLELEYGTLVPMRFMSREHKMKVVSVAAWCTVHDHDESRIVGEAIRAAVEASNSKVLLVASGSLSHKIWPNKDYAANNGTFTISSEFNRQMDLHVLEMWKRGDHATFLKMLGDYARFCCGEGSMHDTAMLYGALGWDSYDKPCEVVTEYFPSSGTGQTNVIFPV
MGSDKIHHHHHHMGIMENPLIKPAALENTHQDGPHPQAEEPYYLPFGDEVSIFTQCHRRHLAVMLKGPTGCGKTRFVEHMAWRMKRPLIIVSCHDDLTAADLVGRFLIRDNATIWQDGPLTRAVRVGAICYLDEVVEARQDAVVVIHPLTDYRRVLPIDKTGELIEATPGFQLVISYNPGYQHVTKDLKPSTRQRFVALDFDFPPPEREAEIVIHESGAQPAVAYDLVALGGRIRGLADRGLAEVPSTRLLVATARLIANGIPPRLACHVALVSPLSDDPALVAAMRDLVDATLLD
MGSDKIHHHHHHMGIVGLPNAGKSSFFNFLTDNSVPAESFPFCTIEPNVGILVVPDERIEILAKNEGSKKVVHPFVEVVDIAGLVKGASKGEGLGNQFLDHISKVDVIAHVVRLFEDGRVSHPYQNVDPKRDIEIVETELILKDLETVQKRLEKRMKVARTGDKEAKREVELLQNLREFLSQGKKASKFPRHDRFEEEVIESLFLLTDKPQILVFNVDELDEEKRKLIEEIVKEKDEEYIIINVKLEEELKFLPEEEAEVFRREYNLFGDKRKEFFEKVLKLLNLIRFLTATQNEARSWTIKKGSTAYEAAGLIHSDIQKGFIKVEVIPFERYVEFGSLKKAREAGAVETHGKDYIVREGDVIHFLFRA
MGSDKIHHHHHHMGLALCGAAAQAQEKPNFLIIQCDHLTQRVVGAYGQTQGCTLPIDEVASRGVIFSNAYVGCPLSQPSRAALWSGMMPHQTNVRSNSSEPVNTRLPENVPTLGSLFSESGYEAVHFGKTHDMGSLRGFKHKEPVAKPFTDPEFPVNNDSFLDVGTCEDAVAYLSNPPKEPFICIADFQNPHNICGFIGENAGVHTDRPISGPLPELPDNFDVEDWSNIPTPVQYICCSHRRMTQAAHWNEENYRHYIAAFQHYTKMVSKQVDSVLKALYSTPAGRNTIVVIMADHGDGMASHRMVTKHISFYDEMTNVPFIFAGPGIKQQKKPVDHLLTQPTLDLLPTLCDLAGIAVPAEKAGISLAPTLRGEKQKKSHPYVVSEWHSEYEYVTTPGRMVRGPRYKYTHYLEGNGEELYDMKKDPGERKNLAKDPKYSKILAEHRALLDDYITRSKDDYRSLKVDADPRCRNHTPGYPSHEGPGAREILKRK
